Source: publication PMC4132743 (Nucleic Acids Research, 2014)

Target: T1, DnaT Y127A/W128A (Escherichia coli K12, UniProt P0A8J2 1-179, Y127A;W128A)
T1 sequence: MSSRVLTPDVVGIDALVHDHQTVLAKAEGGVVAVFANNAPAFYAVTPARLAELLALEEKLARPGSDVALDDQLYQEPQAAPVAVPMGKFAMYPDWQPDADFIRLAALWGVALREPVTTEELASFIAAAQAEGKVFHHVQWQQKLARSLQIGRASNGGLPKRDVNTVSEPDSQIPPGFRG
Assay: fluorescence polarization; almost no detectable binding; Buffer A: 20 mM Tris-HCl pH 7.5, 40 mM NaCl, 5% v/v glycerol, 20 C; FPA 200 nM 5'-FAM DNA, Hill fit; EMSA 30 min at 20 C, gels in 0.5x TBE at 4 C
Conditions: protein: recombinant; tags: His-MBP removed by TEV; label: 5'-FAM

TTTTTTTTTTTTTTTTTTTTTTTTTTTTTT (ssDNA) [5F-dT30]: no binding.
